Data on 4 proteins can be found in paper PMC3744803, “A continuous fluorescence assay for the characterization of Nudix hydrolases” (Analytical Biochemistry, 2013).

Substrate in data set [1]: Nc1nc2c(ncn2[C@@H]2O[C@H](COP(=O)(O)OP(=O)(O)O[C@H]3O[C@H](CO)[C@@H](O)[C@H](O)[C@@H]3O)[C@@H](O)[C@H]2O)c(=O)[nH]1
The data set can be described thus: discontinuous Fiske-SubbaRow (malachite green phosphate) assay. It counts as biochemical, Escherichia coli. To be noted: pH 8.5, 37 °C, 1 mM MgCl2, APase coupling. The source says: discontinuous Fiske-SubbaRow (malachite green phosphate) assay on NudD

Substrate in data set [2]: Nc1nc2c([nH]c(=O)n2[C@@H]2O[C@H](CO[P@@](=O)(O)O[P@@](=O)(O)OP(=O)(O)O)[C@@H](O)[C@H]2O)c(=O)[nH]1
The data set can be described thus: continuous fluorescence Pi-sensor (PBP-MDCC) assay. Type of data set: biochemical, Deinococcus radiodurans. Conditions: pH 7.6, 37 °C, 10 mM Tris-HCl, 1 mM MgCl2, no coupling phosphatase. The source says: (§1) continuous fluorescence Pi-sensor (PBP-MDCC) assay on DR_1025

Substrate in data set [3]: Nc1nc2c([nH]c(=O)n2[C@H]2C[C@H](O)[C@@H](COP(=O)(O)OP(=O)(O)OP(=O)(O)O)O2)c(=O)[nH]1
The data set can be described thus: continuous fluorescence Pi-sensor (PBP-MDCC) assay. It counts as biochemical, Deinococcus radiodurans. To be noted: pH 7.6, 37 °C, 10 mM Tris-HCl, 1 mM MgCl2, no coupling phosphatase.
Text: as §1

Substrate in data set [4]: Nc1nc2c([nH]c(=O)n2[C@@H]2O[C@H](CO[P@@](=O)(O)O[P@@](=O)(O)OP(=O)(O)O)[C@@H](O)[C@H]2O)c(=O)[nH]1
Briefly: continuous fluorescence Pi-sensor (PBP-MDCC) assay. To be noted: pH 7.6, 37 °C, 10 mM Tris-HCl, 1 mM MgCl2, PPase coupling. It counts as biochemical, Escherichia coli. An excerpt:
(§2) continuous fluorescence Pi-sensor (PBP-MDCC) assay on MutT

Substrate in data set [5]: Nc1nc2c([nH]c(=O)n2[C@H]2C[C@H](O)[C@@H](COP(=O)(O)OP(=O)(O)OP(=O)(O)O)O2)c(=O)[nH]1
Briefly: continuous fluorescence Pi-sensor (PBP-MDCC) assay. Type of data set: biochemical, Escherichia coli. To be noted: pH 7.6, 37 °C, 10 mM Tris-HCl, 1 mM MgCl2, PPase coupling, alpha-beta cleavage.
Text: as §2

Substrate in data set [6]: Nc1ncnc2c1[nH]c(=O)n2[C@H]1C[C@H](O)[C@@H](COP(=O)(O)OP(=O)(O)OP(=O)(O)O)O1
The data set can be described thus: continuous fluorescence Pi-sensor (PBP-MDCC) assay. It counts as biochemical, Methanosarcina mazei. To be noted: pH 7.6, 37 °C, 10 mM Tris-HCl, 1 mM MgCl2, PPase coupling. The source says:
(§3) continuous fluorescence Pi-sensor (PBP-MDCC) assay on MM_0920

Substrate in data set [7]: Nc1nc2c([nH]c(=O)n2[C@H]2C[C@H](O)[C@@H](COP(=O)(O)OP(=O)(O)OP(=O)(O)O)O2)c(=O)[nH]1
Briefly: continuous fluorescence Pi-sensor (PBP-MDCC) assay. It counts as biochemical, Methanosarcina mazei. Conditions: pH 7.6, 37 °C, 10 mM Tris-HCl, 1 mM MgCl2, PPase coupling.
Text: as §3

B1: NudD (Escherichia coli K-12) (protein)
chain: MFLRQEDFATVVRSTPLVSLDFIVENSRGEFLLGKRTNRPAQGYWFVPGGRVQKDETLEAAFERLTMAELGLRLPITAGQFYGVWQHFYDDNFSGTDFTTHYVVLGFRFRVSEEELLLPDEQHDDYRWLTSDALLASDNVHANSRAYFLAEKRTGVPGL
As a reminder, the Km is the substrate concentration at which the rate is half of its maximum. As to B1, in data set [1], the Michaelis-Menten constant (Km) is 220 ± 60 µM.

B2: DR_1025 (Deinococcus radiodurans R1 = ATCC 13939 = DSM 20539) (protein)
chain: MEHDERTHVPVELRAAGVVLLNERGDILLVQEKGIPGHPEKAGLWHIPSGAVEDGENPQDAAVREACEETGLRVRPVKFLGAYLGRFPDGVLILRHVWLAEPEPGQTLAPAFTDEIAEASFVSREDFAQLYAAGQIRMYQTKLFYADALREKGFPALPV
Usually kcat stands for the maximal rate divided by the concentration of active sites. A word on the kcat/Km: it is the second-order rate constant that governs catalysis at low substrate concentration. B2: in data set [2], the Km was determined as 22 ± 5 µM and the kcat worked out at 0.13 ± 0.01 s⁻¹. In data set [3], the Michaelis constant (Km) came out at 26 ± 1 µM, the kcat amounted to 0.18 ± 0.01 s⁻¹ and the kcat/Km worked out at 4400 ± 100 M⁻¹ s⁻¹.

B3: MutT (Escherichia coli K-12) (protein)
chain: MKKLQIAVGIIRNENNEIFITRRAADAHMANKLEFPGGKIEMGETPEQAVVRELQEEVGITPQHFSLFEKLEYEFPDRHITLWFWLVERWEGEPWGKEGQPGEWMSLVGLNADDFPPANEPVIAKLKRL
For the protein B3, in data set [4], the Km is 0.9 ± 0.2 µM and the kcat was 11.2 ± 0.9 s⁻¹. Further, in data set [5], the Michaelis constant (Km) was 0.28 ± 0.03 µM.

B4: MM_0920 (Methanosarcina mazei Go1) (protein)
chain: MNLEKPYIISVYALIRNEKGEFLLLRRSENSRTNAGKWDLPGGKVNPDESLKEGVAREVWEETGITMVPGDIAGQVNFELTEKKVIAIVFDGGYVVADVKLSYEHIEYSWVSLEKILGMETLPAYFRDFFERFDRENKKPSKLFI
As for B4, in data set [6], the Km is 12 ± 3 µM, the kcat turned out to be 0.00096 ± 8e-05 s⁻¹ and the specificity constant (kcat/Km) came to 78 ± 12 M⁻¹ s⁻¹. Besides, in data set [7], the Michaelis-Menten constant (Km) is 13 ± 3 µM and the catalytic constant (kcat) result is reported as “(1.9 ± 0.2) × 10^−3 s^−1”.
